Measurements published in US20240400638A1, “COMBINATION OF RELAXIN AND VASOPRESSIN ANALOGUES FOR TREATMENT OF RENAL DISORDERS OR CONDITIONS” (River 2 Renal Corp., priority 2021, published 2024).
Numbered stars: 1 amine (or outer) side, 2 acyl side, 3 side chain; on linkers, the order of the positions; unused ones are H or OH. Square brackets hold non-standard residues; d marks the D form. Side chains are listed from the residue outwards. * marks the point of attachment. TTDS = 4-[3-[2-[2-(3-aminopropoxy)ethoxy]ethoxy]propylamino]-4-oxo-butanoyl; Trp(5-F) = N[C@@H](Cc1c[nH]c2ccc(F)cc12)C(=O)O; Phe(4-F) = N[C@@H](Cc1ccc(F)cc1)C(=O)O; γGlu = O=C(O)[C@H](CCC(=O)[*:2])N[*:1]; Palmitoyl = CCCCCCCCCCCCCCCC(=O)*; αMeF = C[C@](N)(Cc1ccccc1)C(=O)O; Myristoyl = CCCCCCCCCCCCCC(=O)*; Cit = NC(=O)NCCC[C@H](N)C(=O)O; αMeK = C[C@](N)(CCCCN)C(=O)O; hLys = NCCCCC[C@H](N)C(=O)O; AEEA = NCCOCCOCC(=O)O; Aib = CC(C)(N)C(=O)O

T1: human RXFP1 (human, UniProt Q9HBX9 1-757)
T1 sequence (looked up): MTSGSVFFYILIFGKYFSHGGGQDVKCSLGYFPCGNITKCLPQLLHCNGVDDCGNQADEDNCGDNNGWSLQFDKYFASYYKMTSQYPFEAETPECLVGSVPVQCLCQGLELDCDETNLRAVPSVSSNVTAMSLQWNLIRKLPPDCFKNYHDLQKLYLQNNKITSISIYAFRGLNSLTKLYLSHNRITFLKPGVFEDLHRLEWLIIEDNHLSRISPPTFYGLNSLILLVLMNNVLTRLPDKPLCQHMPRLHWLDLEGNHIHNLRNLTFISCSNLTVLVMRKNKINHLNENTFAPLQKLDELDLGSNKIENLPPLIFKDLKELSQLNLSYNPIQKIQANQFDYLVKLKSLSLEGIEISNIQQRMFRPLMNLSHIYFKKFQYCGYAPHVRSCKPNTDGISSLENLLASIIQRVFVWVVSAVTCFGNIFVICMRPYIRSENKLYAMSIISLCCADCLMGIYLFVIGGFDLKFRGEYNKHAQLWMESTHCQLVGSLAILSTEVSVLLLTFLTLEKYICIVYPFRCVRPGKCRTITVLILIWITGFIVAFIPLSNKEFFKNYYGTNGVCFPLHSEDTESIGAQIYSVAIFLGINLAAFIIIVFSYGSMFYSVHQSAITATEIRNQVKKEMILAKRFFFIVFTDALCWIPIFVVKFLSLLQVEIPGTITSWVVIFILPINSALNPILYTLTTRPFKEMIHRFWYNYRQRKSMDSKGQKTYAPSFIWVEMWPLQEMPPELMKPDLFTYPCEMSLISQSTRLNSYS

B1: Relaxin peptide analogue of SEQ ID NO: 8 (peptide)
peptide: Ac-LEGREKVRAK(Ac)I[Aib][Aib]EGK([AEEA-AEEA-AEEA-AEEA-γGlu-γGlu-γGlu-Palmitoyl])STFS[αMeK]RAK(Ac)-NH2
SMILES: CCCCCCCCCCCCCCCC(=O)N[C@@H](CCC(=O)N[C@@H](CCC(=O)N[C@@H](CCC(=O)NCCOCCOCC(=O)NCCOCCOCC(=O)NCCOCCOCC(=O)NCCOCCOCC(=O)NCCCC[C@H](NC(=O)CNC(=O)[C@H](CCC(=O)O)NC(=O)C(C)(C)NC(=O)C(C)(C)NC(=O)[C@@H](NC(=O)[C@H](CCCCNC(C)=O)NC(=O)[C@H](C)NC(=O)[C@H](CCCNC(=N)N)NC(=O)[C@@H](NC(=O)[C@H](CCCCN)NC(=O)[C@H](CCC(=O)O)NC(=O)[C@H](CCCNC(=N)N)NC(=O)CNC(=O)[C@H](CCC(=O)O)NC(=O)[C@H](CC(C)C)NC(C)=O)C(C)C)[C@@H](C)CC)C(=O)N[C@@H](CO)C(=O)N[C@H](C(=O)N[C@@H](Cc1ccccc1)C(=O)N[C@@H](CO)C(=O)N[C@@](C)(CCCCN)C(=O)N[C@@H](CCCNC(=N)N)C(=O)N[C@@H](C)C(=O)N[C@@H](CCCCNC(C)=O)C(N)=O)[C@@H](C)O)C(=O)O)C(=O)O)C(=O)O

Molecular target: T1, human RXFP1
Test: cell-based or functional assay

Binder	EC50 (nM), OVCAR 5 cells (cAMP) [nM]	EMax, OVCAR 5 cells (cAMP) [%]
Ac-LEGREKVRAK(Ac)I[Aib][Aib]EGK([TTDS-TTDS-TTDS-γGlu-γGlu-γGlu-Palmitoyl])STFTRRAK(Ac)-NH2 [Relaxin peptide analogue of SEQ ID NO: 93]	0.77	86
Ac-LEGRERVR[Aib]K(Ac)I[Aib][Aib]EGK([TTDS-TTDS-TTDS-γGlu-γGlu-γGlu-Palmitoyl])STWS[Aib]RRK(Ac)-NH2 [Relaxin peptide analogue of SEQ ID NO: 85]	0.3	92
Ac-LEGREKVRAK(Ac)I[Aib][Aib]EGK([TTDS-TTDS-TTDS-γGlu-γGlu-γGlu-Palmitoyl])ST[αMeF]SRRAK(Ac)-NH2 [Relaxin peptide analogue of SEQ ID NO: 89]	0.1	97
Ac-LEGREKVRAK(Ac)I[Aib][Aib]EGK([TTDS-TTDS-TTDS-γGlu-γGlu-γGlu-γGlu-Myristoyl])STFS[αMeK]RAK-NH2 [Relaxin peptide analogue of SEQ ID NO: 97]	0.29	98
Ac-LEGREKVRAK(Ac)I[Aib][Aib]EGK([TTDS-TTDS-γGlu-γGlu-Palmitoyl])STFS[αMeK]RAK(Ac)-NH2 [Relaxin peptide analogue of SEQ ID NO: 9]	0.7	93
Ac-LEGRERVRAK(Ac)I[Aib][Aib]EGK([TTDS-TTDS-TTDS-γGlu-γGlu-γGlu-Palmitoyl])ST[Trp(5-F)]S[Aib]RRK(Ac)-NH2 [Relaxin peptide analogue of SEQ ID NO: 92]	0.1	99
Ac-LEGREKVRAK(Ac)I[Aib][Aib]EGK([TTDS-TTDS-TTDS-γGlu-γGlu-γGlu-Myristoyl])STFS[αMeK]RAK(Ac)-NH2 [Relaxin peptide analogue of SEQ ID NO: 95]	1.8	91
Ac-LEGREKVRAK(Ac)I[Aib][Aib]EGK([TTDS-TTDS-TTDS-γGlu-γGlu-γGlu-Palmitoyl])STFVRRAK(Ac)-NH2 [Relaxin peptide analogue of SEQ ID NO: 94]	1.74	88
Ac-LEGREKVR[Aib]K(Ac)I[Aib][Aib]EGK([TTDS-TTDS-TTDS-γGlu-γGlu-γGlu-Palmitoyl])STWS[Aib]RAK(Ac)-NH2 [Relaxin peptide analogue of SEQ ID NO: 82]	0.54	95
Ac-[Aib]EGREKVRAK(Ac)I[Aib]IEGK([TTDS-TTDS-TTDS-γGlu-γGlu-γGlu-Palmitoyl])STFS[αMeK]RAK(Ac)-NH2 [Relaxin peptide analogue of SEQ ID NO: 86]	0.3	95
Ac-LEGREKVRAK(Ac)I[Aib]IEGK([TTDS-TTDS-TTDS-γGlu-γGlu-γGlu-Palmitoyl])STFS[αMeK]RAK(Ac)-NH2 [Relaxin peptide analogue of SEQ ID NO: 84]	0.1	95
Ac-LEGREKVRAK(Ac)I[Aib][Aib]EGK([TTDS-TTDS-TTDS-γGlu-γGlu-γGlu-Palmitoyl])STFSRRAK(Ac)-NH2 [Relaxin peptide analogue of SEQ ID NO: 87]	0.1	96
Ac-LEGREKVRAK(Ac)I[Aib][Aib]EGK([TTDS-TTDS-TTDS-γGlu-γGlu-γGlu-Palmitoyl])STFS[hLys]RAK(Ac)-NH2 [Relaxin peptide analogue of SEQ ID NO: 88]	0.17	96
B1	1.86	92
Ac-LEGREKVRAK(Ac)I[Aib][Aib]EGK([TTDS-TTDS-TTDS-γGlu-γGlu-γGlu-Palmitoyl])SKWS[Aib]RKK(Ac)-NH2 [Relaxin peptide analogue of SEQ ID NO: 83]	0.25	94
Ac-LEGREKVRAK(Ac)I[Aib][Aib]EGK([TTDS-TTDS-γGlu-γGlu-γGlu-γGlu-Palmitoyl])STFS[αMeK]RAK(Ac)-NH2 [Relaxin peptide analogue of SEQ ID NO: 10]	0.79	95
Ac-LEGREKVRAK(Ac)IA[Aib]EGK([TTDS-TTDS-TTDS-γGlu-γGlu-γGlu-Palmitoyl])STFS[αMeK]RAK(Ac)-NH2 [Relaxin peptide analogue of SEQ ID NO: 90]	0.14	97
Ac-LEGREKVRAK(Ac)I[Aib][Aib]EGK([TTDS-TTDS-TTDS-γGlu-γGlu-γGlu-Myristoyl])STFS[αMeK]RAK-NH2 [Relaxin peptide analogue of SEQ ID NO: 96]	0.88	92
Ac-LEGREKVRAK(Ac)I[Aib][Aib]EGK([TTDS-TTDS-TTDS-γGlu-γGlu-γGlu-Palmitoyl])STWS[αMeK]RAK(Ac)-NH2 [Relaxin peptide analogue of SEQ ID NO: 11]	0.83	93
Ac-LEGREKVRA[Cit]I[Aib][Aib]EGK([TTDS-TTDS-TTDS-γGlu-γGlu-γGlu-Palmitoyl])STFS[αMeK]RAK(Ac)-NH2 [Relaxin peptide analogue of SEQ ID NO: 12]	0.93	90
Ac-LEGRERVRAK(Ac)I[Aib][Aib]EGK([TTDS-TTDS-TTDS-γGlu-γGlu-γGlu-Palmitoyl])ST[Phe(4-F)]S[Aib]RRK(Ac)-NH2 [Relaxin peptide analogue of SEQ ID NO: 91]	0.09	97
